Among the data in patent US20130149300A1 (ICON GENETICS, published 2013) are Absorbance and Kd values, retold here.

B1: Anti-Ebola virus produced in -XF plants (antibody)
heavy: not shown
light: QLVLTQSSSASASLGASVKLTCTLSRQHSTYTIEWYQQQPAKPPRYVMELKKDGSHSTGDGIPDRFSGSSSGADRYLTISSLQSEDEADYYCGVGDTIKEQFVYVFGTGTKVTVLGQPKAAPSVTLFPPSSEELQANKATLVCLISDFYPGAVTVAWKADSSPVKAGVETTTPSKQSNNKYAASSYLSLTPEQWKSHRSYSCQVTHEGSTVEKTVAPTECS
B2: Anti-Ebola virus produced in -XF +gal plants (antibody)
heavy: not shown
light: B1 light
B3: Anti-Ebola virus produced in wild type plants (antibody)
heavy: not shown
light: B1 light

In one test the target is human C1q (human, UniProt P02745 23-245; P02746 28-253; P02747 29-245). Kind of test: C1q binding ELISA, mAb coated at 2.5 µg/ml, human C1q added.
Sequence of human C1q (P02745 23-245 limits assumed, chain 1 of 3): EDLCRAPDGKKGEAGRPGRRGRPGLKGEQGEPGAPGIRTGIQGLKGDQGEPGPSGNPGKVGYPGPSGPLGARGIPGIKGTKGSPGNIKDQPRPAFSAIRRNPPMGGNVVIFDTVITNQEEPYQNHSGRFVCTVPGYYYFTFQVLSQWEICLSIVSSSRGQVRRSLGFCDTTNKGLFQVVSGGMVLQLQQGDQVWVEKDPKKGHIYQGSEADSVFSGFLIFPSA
Sequence of human C1q (P02746 28-253 limits assumed, chain 2 of 3): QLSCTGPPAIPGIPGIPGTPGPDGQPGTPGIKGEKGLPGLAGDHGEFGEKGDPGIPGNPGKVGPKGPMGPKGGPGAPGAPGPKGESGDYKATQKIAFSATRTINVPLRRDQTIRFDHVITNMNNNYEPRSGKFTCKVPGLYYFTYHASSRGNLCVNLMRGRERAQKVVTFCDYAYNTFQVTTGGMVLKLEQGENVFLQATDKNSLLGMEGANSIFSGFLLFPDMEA
Sequence of human C1q (P02747 29-245 limits assumed, chain 3 of 3): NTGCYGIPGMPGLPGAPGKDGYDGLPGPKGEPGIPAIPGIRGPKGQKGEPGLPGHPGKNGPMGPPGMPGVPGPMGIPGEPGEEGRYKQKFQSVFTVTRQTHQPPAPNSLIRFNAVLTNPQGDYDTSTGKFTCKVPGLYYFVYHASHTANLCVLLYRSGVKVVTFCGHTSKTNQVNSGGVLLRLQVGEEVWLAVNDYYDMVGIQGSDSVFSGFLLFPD
Take B1: the Absorbance is 0.49 absorbance at 450 nm.
For B2, the Absorbance was determined as 0.96 absorbance at 450 nm.
The same measure, in the same setting: to B3 belongs 0.92 absorbance at 450 nm.

In another test the target is T1, Recombinant human FcγRI (human, UniProt P12314 16-288).
T1 construct: also called FcγRI (CD64); CD64
T1 sequence (P12314 16-288 limits assumed): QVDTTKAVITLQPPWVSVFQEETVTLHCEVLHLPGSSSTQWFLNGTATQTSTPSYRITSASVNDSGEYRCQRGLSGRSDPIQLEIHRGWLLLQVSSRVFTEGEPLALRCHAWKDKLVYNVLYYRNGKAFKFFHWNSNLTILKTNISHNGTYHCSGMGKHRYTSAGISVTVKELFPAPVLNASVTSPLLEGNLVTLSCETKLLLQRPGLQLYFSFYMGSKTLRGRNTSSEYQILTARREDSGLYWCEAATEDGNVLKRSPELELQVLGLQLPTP
As to the kind of experiment: SPR (Biacore), receptor amine-coupled to CM5 chip, mAb flowed, 1:1 fit.
In the case of B1, the Kd turned out to be 16 nM.
Turning to B2, the Kd is 15 nM.
On to B3, for which the Kd worked out at 42 nM.

In the next test the target is T2, Recombinant human FcγRIIIA (human, UniProt P08637 17-208).
T2 construct: also called FcγRIIIA (CD16); CD16
T2 sequence (P08637 17-208 limits assumed): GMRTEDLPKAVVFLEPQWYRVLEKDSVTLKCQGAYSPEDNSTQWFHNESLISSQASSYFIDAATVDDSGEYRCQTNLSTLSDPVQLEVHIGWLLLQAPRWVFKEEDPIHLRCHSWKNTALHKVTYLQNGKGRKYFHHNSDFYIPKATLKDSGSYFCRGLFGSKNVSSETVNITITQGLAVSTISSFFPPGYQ
Described as above.
Turning to B1, the Kd came to 25 nM.
On the same count and under the same terms, the same measure for B2: 26 nM.
Same read-out and setting: to B3 belongs 72 nM.
